According to the nanobody polyreactivity screen of Harvey et al. (2022):

Assay: yeast display, Sf9 membrane polyspecificity reagent, FACS + sequencing; frameworks hold sequencing errors
How it was run: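 Nanobodies came from a synthetic yeast display library in Saccharomyces cerevisiae BJ5465, induced with galactose for 36–48 hours and stained for 1 hour at 4 °C with 10% biotinylated, detergent-solubilized Sf9 membrane reagent. Cells were enriched on streptavidin microbeads and then FACS-sorted, with low and high (top ~1%) gates set on anti-HA fluorescence for expression and streptavidin fluorescence for reagent binding. Each polyreactivity label reflects the gate a clone came from. Genes were amplified by colony PCR, sequenced by MiSeq 2 × 250 and filtered by CDR length.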

Sequence	polyreactivity (PSR sort gate)
QVQLVESGRGLVQAGGSLRLSCAASGSTFRYNAMGWYRQAPGKERELVAAINRGGGTDYADSVKGRFTISRDNAKNTDYLQMNSLKPEDTAVYYCAKQFVSYNRWLAYGYWGQGTQVTVSS	low polyreactivity
QVQLVESGVGLVQAGGSVRLSCAASGFTFGYYAMGWYRQAPGKERELVASISSVDNTYYADSVKGRFTISRDNAKNTVYLQMNSLKPEDTAVYYCAARYRDYFVRGGYWGQGTQVTVSS	high polyreactivity
QVQLVESGGGLVQAGGSLSLSCAASGSTFYENAMGWYRQAPGKERELVAAITWSGGRTYYADSVKGRFTISRDNAKNTVYLQMNSLKPEDTAVYYCNARARSRKFYYWGQGTQVTVSS	high polyreactivity
QVQLVESGGGLVQAGGSLRLSCAASGITFSYYAMGWYRQAPGKERELVAAISRTGTSTYYADSVKGRFTISRDNAKNTVYLQMNSLKPEDTAVYYCAARYYYWGQGTQVTVSS	high polyreactivity
QVQLVESGGGLVQAGGSLRLSCAASGSIVAGNAMGWYIQAPGKEREMVAAITWRSGRTYYADSVKGRFTISRDNAKNTVNLQMNSLKPVDTAVYYCARGRYGYTAPVRRWYFRYDYWGQGTQVTVSS	high polyreactivity
QVQLVESGGGLVQAGGSLRLSCAASGRTFVVYAMGWYRQAPGKERELVAVISFTGDSTFYADSVKGRFTISRDNSKNTVYLQMNSLKPEDTAVYYCAADFRRVFSKYSYYLYFDFDYWGQGTQVTVSS	low polyreactivity
QVQLVESGGGLVQAGGSLRLSCAASGRTFPGNAMGWYRQAPGKERELVAAINSGGSTYYADSVKGRFTISRDNAKNTVYLQMNSLKPEDTAVYYSAAYFGHYWRYYYWGQGTQVNVSS	high polyreactivity
QVQLVESGGGLVQAGGSLRLSSAASGSIFARYAMGWYRPAPVKERELVAAISGRGGSTYYADSVKGRFTISRDNAKNTVYLQMNSLKPEDTAVYYCNAVGHTSIRRALDILDYWGQGPQVTVSS	high polyreactivity
QVQLVESGGGLVQAGGSLRLSCAASGRIFGVYAMGWYRQAPGKERELVAAISSGASTYYADSVKGRFTISRDNAKNTVYLQMNSLKPEDTAVYYCAKSVKGGTGYYYWGQGTQVTVSS	low polyreactivity
QVQLVESGGALGQAGGSLRLTSAASGITFPRYAIGWYRHAPGKEREMVATITRSGGGTYYADSVKGRFKISRDNAKNTVYLQMNSLKPEDTSVFYCAAGALQRGVYGYGFWGQGTQVTVSS	high polyreactivity
QVQLVESGGGLVQAGCSLRLSCAASGSTVYYKAMGWYREAPGKERELVAAITSGGRTKYADSVKGRFTISRDNAKNTVYLQMNSLKPEDTAVYYCNTYNRRSGTLPKPYDYWGQGTQVTVSS	high polyreactivity
QVQLVESGGGLVQAGGSLRLSWAASGSFFKRNAMGSYRQAPGKEREFVAAITYNGGSTYYADSVKGRFTISRDNAMTTVYLQMNSLKPEDTAVYDCNNLYSRAQFRGGDYWAQGTQVTVSS	high polyreactivity
QVQLVESGGGLVQAGGSLRLICAASGSTFPKYAMGWYRQAPGKERELVASISVTTGSTYYADSVKGRFTISRDYAKNTVYLQMNSLKPEDTAVYYCAKRTYSRKFRGAYNYWGQGTQVTVSS	high polyreactivity
QVQLVESGGGLVQAGGSLRLSCAASGGILVGYAMGRYRQAPGKERELVAANNYSGGSTNYADSVKGRFTISRDNAKYSVYLQMNSLKPEDTAVYFCAARSTARYGYWGQGTQVTVSS	low polyreactivity
QVQLVESGGGLVQAGGSLRLSCAASGITFGRNTMGWYRQAPGKERELVAAIDSGGNTYADSVKGRFTISRDNAKNTVYLQMNSLKPEDTAVYYCAKDVYSYYYPYRYESWGQGTQVTVSS	low polyreactivity
KVQLVESGGGLVQAGGSLRLSCAASGSTFYYYAMGWNRQAPGKERELVAVITLSGGSTYYADSVKGRFTISRDNAKNTFYLQMNSLKPEDTAVFYCAAEHWEVWNSYYYEYDYWGQGTLVTVSS	high polyreactivity
QVQLGESGGGLVQAGGRLRLSCAASGYTFGYYTMGWYRQAPGKERELVASIDSGGGTNYADSVKGRFTISRDNAKNTVYLQMNSVKAEDTAVYYCAAESPLYWVDDFESGWRYYYWGQGTQVTVSS	low polyreactivity
QVQLVESVGGLVQAGGSLRLSCAASGGIFGVYAMGWYRQAPGKERELVAAISNSDTSTSYADSVMGRFTISRDIAKNTVYLQMNSVYPEDTAVYYCNADSPSLSGDYWGQGTQVTVSS	low polyreactivity
QVQLVESGGGLVQAGGSLRLSCAASGLTFSYYAMGWSRQAPGKERELVAAISRGGRTNYADSVKGRFTISRDNAKNTVYLQMNSLKPEDTAVYYCAARFVVQGHSSPYDYWGQGTQVTVSS	high polyreactivity
QVQLVESGGGLVQAGGSLRLSCAASGYIFGQYAMGWYRQAPGKERELVADITRGGDTYYADSVKGRFTISRDNAKNTVYLQMNSLKPEDTAVYYCAADSFYWAWQYDYWGQGTQVTVSS	high polyreactivity
QVQLVESGGGLVQAGGSLRLSCAASGTFYYYAMGWYRQAPGKERELVAAIDYSGGSTYYADSVKGRFTISRDNAKNTVYLQMNSLKPEDTAVYYCAYVSVYDFEFWGQGTQVTVSS	high polyreactivity

Sequence	polyreactivity (PSR sort gate)
QVQLVESGGGLVQAGGSLRLSWAASGLIFYDNMGWYRQAPGKERELVASISSSGGSTSYADSVKGRFTISRDNAKNTVYLQMNSLKPEDTAVYYCAAVRRGYKYVYWGQGTQVTVSS	low polyreactivity
QVQLVESGGGLDQAGGSLRLSCAASGSIFKYYVIGCYRQAPAKERELLAAISSGGSTYYADSVKGRFTISRDNAKNTVSLQLNSLKPEDTAVYFCAAKKAKSYYVSRYPRYYYWGQGTQVTVSS	low polyreactivity
QVQLVESGGGLVQAGGSLRLSCAASGFTFSYYALGWYRQAPGKERELVAVISDRGGITYYADSVKGRFTISRDNAKNTVYLQMNSRKPEDTAVYYCAAQNPRYNYRYYYWGQGTQVTVSS	low polyreactivity
QVQLVESGGGLVQAGGSLRLSCAAYGYTLYHNAMGWYRQAPGKERELVAAITSSGGRTYYADSVKGRFTISRDNAKNTVYLQMNRLKPDDTAVYYCNAVVWVYSISLSYTGTKYEYWGQGTQVTVSS	high polyreactivity
QVQLVESGRGLVQAGGSLRLSCASSGSTFRWNAMGWYRQAPGKERELVAAISQSGSSTYYADSVKGRFTISRDNAKNTVYLQMNSLKPEDTAVYYCAARTGRKYYYWGQGTQVTVSS	low polyreactivity
QGQLVESGRGLVQAGGSLRLSSAASGSTFFANAMGWYRQAPGKERELVAAIDKRGGRTYYADSVKGRFTISRDNAKNTVYLQMNSLKPEDTAVYYCNAVANYRLKYDYWGQGTQVTVSS	high polyreactivity
QVQIVESGGGLVQAGGSLRLSCASSGSTSYRNAMGWYRQAPGKEREFVASISKSTDSTYYADSVKGRFTISRDNAKNTVYLQMLSLKPEDTAVSYCADVQGYKGLQDDSWGQGTQVTVSS	high polyreactivity
QVQLVESGGGLVQAGGSLRLSCAASGRIFTIYAMGLYRQEPGKERELVASITWRGGRTYYADSVKGRFTISRDNAKNTVYLQMNSLKPEDTAVYYCAAEFYRWGSLSFSYDYWGQGTQVTVSS	low polyreactivity
QVQLVETGGGLVKAGGSLRLSSAASGSIFVYYVMGWYRQAPGKERELVAAINSDGDGTYYADSVKGRFTISRDNAKNTVYLQMNSLKPEDTAVYYCAASAFTGVDTYGYGGQGTQVTVSS	low polyreactivity
QVQLVESGGCLVQAGGSLRLISAASGSTFQRYAIGWYRQAPGKERELVAAITWSNGSTYYADSVKGRFTISRDNAKNTVYLQMISLKPEDTAVYYCAAEVHFGGDYWGQGTQVTVSS	low polyreactivity
QVQLVESGGGLVQAGGSLRLSCAASGSIFSSYAMGWYRQAPGKERELVAAISSGGITYYADSVKGRFTISRDNAKNTVYLQMNSLKPEDTAVYYCAAVRRRGTTYDYWGQGTQVTVSS	high polyreactivity
QVQLVESGGGLVQAGGSLRLSCAASGRTFYRNAMGWYRQAPGKERELVAAIRGSGSSTYYADSVKGRFTISRDNAKNTVYLQMNSLKPEDTAVYYCAADYITYNGYARYYYWGQGTQVTVSS	high polyreactivity
QVQLVDSGGGLVQAGGSLRLSCAASGRIFNWYAMGWYRQAPGKERELVARITWCDGGTYYADSVKGRFTISRDNAKNTVSLQMNSLKPDDTAVYYCAKQWKSYYALDYWGQGTQVTVSS	high polyreactivity
QVQLVESGGGLVQAGGSLRLSCAASGRIYYTYAMGWYRQAPGKERELVAAIRRGGSTNYADSVKGRFTISRDNAKNTVYLQMNSLKPEDTAVYYCAADVYRASFWYGYWGQGTQVTVSS	low polyreactivity
QVQLVESGGGLVQAGGTLRLSCAASGSIFTHYAMGWYRQAPGKERELVAAISRRGGSTYYADSVKGRFTNSRDNAKNTVYLQMNSLKPEDSAVYYCAKSPDTAKEYDYWGQGTQVTVSS	high polyreactivity
QVQLEESGVGLVQAGGSLRLSCAASGFTFYYNAMGWYRQAPGKERELVAGITWSGGSTYYADSVKGRFTISRDNAKNTVYLQMNSLKPEDTAVYYFAKDHQDSDYDYWGQGTQVTVSS	high polyreactivity
QVQLVESGGGLVQAGGSLRLSCDASGRIFAGYAMGWYRQAPGKERELVASINWSGGSTYYADSVKGRFTISRDNAKNTVYLQMNSLKPEDTAVYYCAKEPTYRSGEAYVGLYYWGQGTQVTVSS	high polyreactivity
QVQLVESVRGLVQAGGSLRLSCAASGRILPSNAMGWYRQAPGKERELVAGITSGGSTDYADSVKGRFTISRDNAKNTVYLQMNSLKPEDTAVYYCNKPFPYYPDGPNGYDYWGQGTQVTVSS	low polyreactivity
QVHLVESGGGLVQAGGSLRLSCAASGSTFYYNAIGWYRQAPGKERELVARISRSGGSTYADSVKGRFTISRDKAKNTFYLQMNSLKPEDTAVYYCNADAYGTPEFTSYAVRYDYWGQGTQVTVSS	low polyreactivity
QVQLVESGGGLVQAGGSLRLSCASSGSTSYRYAMGWYRQAPGKERELVAAISSSGGSTYYADSVKGRFTISRDNAKNTVYLQMNSLKPEDTAVYYCAARFYSGPGGYTMYYWGQGTQVTVSS	high polyreactivity
